experiment: soluble on expression in E. coli; label from the status in PepcDB or PDB records

Soluble on expression in E. coli, not soluble:
MGSDKIHHHHHHMSIVEEQAQAGAASTSGSLLDDIMAQARISPVDEGYSVAKQGIAALVANILDSGNAAEPVNKALVDSMIVELDKKLSKQIDVILHAKELQELESSWRSLKLLIDRTDFRENIKLLVLHATKEELLEDFEFAPEISQSGFYKHVYSSGYGQFGGQPIGGVIGDYAMTQSSPDIKLMQYVSAVGAMAHAPFISSVAPTFFGVDRFTDLPSIKDLKSVFEGPAYTKWRSLRESEDGRYLGLTAPRFLARLPYDPVENPIKGFNYKEDISTDHEHYLWGNTAYLMGTALTDSFAKYRWCPNIIGPQSGGAITDLPVHVYQAMGQLQAKIPTEVLITDRREYEMAEEGFITLTMRKDSDNAAFFSANSVQKPKVFPNTKEGKEAETNYKLGTQLPYMFIINRLAHYIKVLQREQIGSWKERQDLERELNTWIKQYIADQENPPADVRSRRPLRAAQIKVLDVEGEPGWYQVTMSVRPHFKYMGANFELSLVGRLDKE
MGSDKIHHHHHHMSKIKRGVSLYSFQEELFLGRMNVEDCVSFAASIGATGIEILPEQNMPTFPNLSDAQVEEWKAMVARHGCHFTAYDMFLDTKLRKDRLMSDDEQVESIVRDLRLCNRLGIRNMRVLVFVRPDILGRCVPYAEELDVHMGVEVHAPWHLEHAWILRTIEEADRLGTKHLGILPDMGIFMKHYPPAFRARFERQGARPEVTQFIVDQHEAKIMAEYTIYEVAVKMGGNKAEVAMAETLRHAPYANPKRIADYAPYFHHIQAKFYEMDEDCTDPSIAYDEVIDALVGCGWEGTLSSEYEGNRWIQDVHEVDSREQVRRQHVMFERLIVQSEARHAGKEAALCSTST
MGSDKIHHHHHHMSKITFKDIYIDGNKITEDSRKAIYLLPPQPLKYASNTWIYKTMPTMNQWLKDIEVQKKMHLNQSSYHLSFSFPANEKIDEVLLEKIRELGFQIGVLELYVIEAKALKELSRKRDVDIQLVSSNNINDYLHVYDAFARPFGDSYANMVKQHIYSSYNLDDIERLVAYVNHQPVGIVDIIMTDKTIEIDGFGVLEEFQHQGIGSEIQAYVGRMANERPVILVADGKDTAKDMYLRQGYVYQGFKYHILKENI
MGSDKIHHHHHHMSKIVVLGAGPAGCSAGYHLAKSGHKVMLIDKDCFPRDKTCGDGISLGSVQALSTMGIYPDDIKRLASEYAQIDGFLLGVSNEISHLCPTELKGYCIPRFVFDNLLYQKAINAGCVARTQRISDIEGYHQELYSDFDYIIDARGVYAGEANAIAIRAYWSIKVADFPKIYLSKAQIYFDKAFGVNGYGWIFPVAVDSELVKLNVGVGVWLDEYQKNNTNIIRLFNEFVQRNQATKQLLSLVVSQQKPKAYPLATAKRANTVSYGKVFKIGDAANLTDPLTGEGIANAILSGLYVTQAINMSTSPELASENWQRLYQLYFEPDLDAGLQIKSFRKFSFINKLLIWLMNRNKPFAEQVTYTFAGLIPYKKLLP
MGSDKIHHHHHHMSKNDLADLLRVGPETTMGKFMRQYWLPAVLSHEVKADGDPVRLMLLGEKLIAFRDSSGRVGVLDHRCPHRCASLFVGRNEENGIRCVYHGWKFDVDGNCVDMPSVPARLDFKEKVHARAYKAVERNGLIWVYMGENQNNPPPLPAIEANMIPGSKIWCLQRQCNWLQALEGDIDTSHVGFLHVGALQPEDLPEGSPLRPTVLNRAPEYRVQNAEWGATYGAYRLAEDGRMSWRAAQFMFPFWTMTPNILFSTRAIARAWVPMDDTHVMLFDITGGVDEGNPFFTTKLKNGEPMYEKIRRKPNGTGWYDRWLPVDGLQNDWGIDREAQRNMIHYTGIDNPSMQDQAITESMGPITDHSFEHLAPTDQMIAFVRRRLTQALRNFRDDSAPAPCAFSPETYFGARSGAFWADPVVEFSTAYRVELEKAQRWPANPDGSAVEREPEVAR
MGSDKIHHHHHHMSKPAITLWSDAHFFSPYVLSAWVALQEKGLSFHIKTIDLDSGEHLQPTWQGYGQTRRVPLLQIDDFELSESSAIAEYLEDRFAPPTWERIYPLDLENRARARQIQAWLRSDLMPIREERPTDVVFAGAKKAPLTAEGKASAEKLFAMAEHLLVLGQPNLFGEWCIADTDLALMINRLVLHGDEVPERLVDYATFQWQRASVQRFIALSAKQSG
MGSDKIHHHHHHMSKYDVSISVIMGVYNQNDEKVLREAVDSILNQTFKDFEFIIYDDGSQPDAALILEKIKKIDPRIVLIGQEKNHGLAFSLNACIEQARGKYIARMDADDISDPNRLKVQYDFLEKNPQYSWCGCNARLLDENGIWGTREMPEAPAEKDYLKYSPYIHPTVMYRASLFEETDGYKVSEETLLCEDYEIFMRLRQMGKRGYNIQETLFTYREDSDSYRRRDFKRGINEAKVRFENFNKLHVLFPTGWVYVFRPIIACLVPREMIYILKRMKTRKKPWKKELESELIITGK

Source: the DeepSol protein solubility set
